Laboratory results taken from the DeepSol protein solubility set.

assay: soluble on expression in E. coli; label from the status in PepcDB or PDB records

Row | Sequence | soluble on expression in E. coli
1 | MKRGYVLHHRPYRESSALVNLLVDGIGRVDAVARVGSGKRSIKSILQPFQPLIFEFSGKSELKNISQIEAAAPAVPLSGYSLYAGMYINELLMRTLSVQHNAEALFFIYHQALVGLAAQFCESKLRYLELALLRELGAMPSLIRDTQGEPLIPEHCYQLVPELGFQFVLNSRAKHTYQGAMLTALNDNQLLQEQFLEAKRLMRSMLQPLLGNKPLVSRQLFIQAAASKVDGNN | not soluble
2 | MEQPYVYAYPQGSGPSGAPTPQAGGVVVDPKYCAPYPIDMAIVRKMMSLTDGNFVITDVNGNLLFKVKEPVFGLHDKRVLLDGSGTPVVTLREKMVSMHDRWQVFRGGSTDQRDLLYTVKRSSMLQLKTKLDVFLGHNKDEKRCDFRVKGSWLERSCVVYAGESDAIVAQMHRKHTVQSVFLGKDNFSVTVYPNVDYAFIASLVVILDDVNREDRAA | soluble
3 | MIFAKGHGTQNDFVLLPDVDAELVLTAARVAALCDRRKGLGADGVLRVTTAGAAQAVGVLDSLPEGVRVTDWYMDYRNADGSAAQMCGNGVRVFAHYLRASGLEVRDEFVVGSLAGPRPVTCHHVEAAYADVSVDMGKANRLGAGEAVVGGRRFHGLAVDVGNPHLACVDSQLTVDGLAALDVGAPVSFDGAQFPDGVNVEVLTAPVDGAVWMRVHERGVGETRSCGTGTVAAAVAALAAVGSPTGTLTVHVPGGEVVVTVTDATSFLRGPSVLVARGDLADDWWNAMG | not soluble
4 | MIDMFHINIPFKKDVIIEMGDCGFVDFAKLAEKTELKIACGNVEFSVVNDQKKVRTDDLYHPWSTIPSSYTDIACKVFDAEPRANVFWGYLQLKASPAKVMQGHNVYGSEDFRLCVEYLLDSLQKAQPELWELLDVGLAEMTRIDCTYSIKCANPDILRQTIKQMGNVSNRYIKPARNSDFETTLYFNRATKANPGAGRSFELCIYTKHDEIAHQLADLKRRARQGDSDRFNRIIDELSKPELQAFAANRLRFEGRAKKRFIQKHVGSANLWQVIRHAEQFEAKNGYRFCEWMFKTLFHDLLESLKGEELELYNDSKIKQLLRDAYSTMTPKGNISYAKADRLFRFYMTLCDRGYQELKAHSSKATLHRNMRDLMAIGFSKADLQNLSEGERMPLAQVLNFNFDNQRPANYVEPVSPTALEHHHHHH | not soluble
5 | MSLIRSMTAYARREIKGEWGSATWEMRSVNQRYLETYFRLPEQFRSLEPVVRERIRSRLTRGKVECTLRYEPDVSAQGELILNEKLAKQLVTAANWVKMQSDEGEINPVDILRWPGVMAAQEQDLDAIAAEILAALDGTLDDFIIARETEGQALKVLIEQRLEGVTAEVAKVRAHMPEILQWQRERLIAKLEDAQVQLENNRLEQELVLLAQRIDVAEELDRLEAHAKETYNILKKKEAVGRRLDFMMQEFNRESNTLASKSINAEVTNSAIELKVLIEQMREQIQNIEEGHHHHHH | soluble
6 | MRSEAKNQKPTAYPMKGIDDLPLHEIIEPALDITSPQVACVGIGVRAVCNYDCVYCYAGHSDKRGDMSVEQYFDVMEQAAELGVKTIIMTGAGGKSEPGLFKGLLPILERASSLGMSTAMFTNGSQFGDDKVARIHNLSAVELAHKIRELKVSLFIACETLEPDLYSNITKKPIAPFQTGLINLIAAGFIGTPGEPTSVTISSVIMRQNFEELPVLQKFAHNNGWQYICKFPTLVGSALDHPELFFSPEEAAERHSIVAELRDKPETLTVTHSGAEYCLVNQVGMSFDNLGTPLNCLSGCEITSRKDMNLKSMRLADIVLLKKHLAHQGIGNCPKKAVFYDFKQPKLEAAAFHGLS | not soluble
7 | MTLVIGLTGGIASGKSTVANMLIEKGITVIDADIIAKQAVEKGMPAYRQIIDEFGEDILLSNGDIDRKKLGALVFTNEQKRLALNAIVHPAVRQEMLNRRDEAVANREAFVVLDIPLLFESKLESLVDKIIVVSVTKELQLERLMKRNQLTEEEAVSRIRSQMPLEEKTARADQVIDNSGTLEETKRQLDEIMNSWALEHHHHHH | soluble
8 | MTVFSGVNKIEFEGTFEGIGKDVVMSQMIRALQKHFPSIRDKNYEFSLFLHIFQRYVLENTSITHDLVCDKIRLPIIDEVVELDDIKNYGLLEGKLLSKLAILKLTGKANPIIGKESPLFEVKNGMSSLDVIVRQTQNLNVRYNSDVPLIFMTSLETESQVSNFLEEHYSSSKVRWKTVVQSSFPQIDKDRLLPIDLQINSHENDFWYPCGTGNLTDTLYFSGELDKLIAQGKEILFVSNVDNLGATGDLNILNFIINEKIEYLVEVVERTANVSNTGVLATYKGKLRSVYYNCLSNESASTCRIVNTNNIWIDLKKLKVLIESNSLNLPIHSSESKITHKNEEIECLQFKTQLVDCIAFFPNSRVLKVSRDRFLPLRTCKDLFLLKSTLYDLDSNGTFNLYPLKFGLLPSIDLGDEFATYETFKIGVPDIPNILELEHLTVMGNVFFGRNITLKGTVIIICDENDVITVPDGSILENVTIWHKSQLEDMNGY | not soluble
9 | MSKEGDILKPEEETMEFPEGDKVKVILSKEDFEASLKEAGERLVAVDFSATWCGPCRTIRPFFHALSVKHEDVVFLEVDADNCEEVVRECAIMCVPTFQFYKKEEKVDELCGALKEKLEAVIAELK | soluble
10 | MINVDPPTGNFPASGGNSVHNIVSESDSRLAFKVKSSNNEHYRVRPVYGFIDPKGKTKLDINRIAGPPKVDKLVIQYAEVPADETDPQAPFKAGAQQGEVIVKITAE | not soluble
11 | NTKQLRFEDVVNQSSPKNCTVYCGGIASGLTDQLMRQTFSPFGQIMEIRVFPEKGYSFVRFSTHESAAHAIVSVNGTTIEGHVVKCYWGKESPDMT | soluble
12 | MGSDKIHHHHHHIYWEFTTKNMLVLEFIEGIRIDDLESLNASKHNIKNITEIGTEVFFLQVFRDGFFHGDMHPGNILIDKEGALIPIDFGIMGRLSNKDRQFLALLLTYLLNKNYRKVVEIHDEANMLGKDVSHDHLSQAIRAISTPILNKPIGEVSLAKLLGQILSLSKKFNIEVQPQFTLLQKTMLMAEGTTRQINPNINMWELSRPLIDKWINDTHDPFKVLEEWFHKNKIALLKIPEIINKIDKILS | not soluble
13 | MAHHHHHHMYLLQCEKKKKQKGKGQIGLTQVEYIGKPLIGGDFTLINHDGKVVTNEDFKKKFCLIYFGFTYCPDICPQELEKQTIVIERIVKKYGDVITPVFISVDPNRDTLAQVKHYCSSFSDRLVGLTGTKEQIRRVAKLFRVYYNEHVVGEEQTEEQTEKQKERQTDTQTEAQSGDPPRAPSYNYLIDHSIIHYLLDADGKFVDFFGKNCTTSEMVERISHYVDLHLQ | not soluble
14 | MPYLNCDTITGDFHFQMIRFARAMEVGDKLTMKGKIMNPANMSYLHLYQGFNSVYEKSPLSLHIRVQYLRNSIIYNSWFGSWGGEQFSQQPFLSGNYYSISVLKGPTYYSIYMGNLLITKYAFRNPANWQIGNLLGYGDWTVTSVSMTCVRPGVPTTPDPKATTTPTPTTTKAQNIIAEDPNGGQLGGGELVVTNPGSVGSGSGNSGNSSNNNNSSGNSNYGSNNSGSGNGNSNSGNGNSGNGNGNNAGNSGNGNGNSNGNNGNGSNGNGNGNNGNGNNGNNGNGHPQYPYPVPPHGYYPPGYPYPPGYPYPPPGAFYYPPGGIPQNGMNGQNGNGQPNIIVINSGGNKKRNRGGNLRPQFDVDLDGDEDEEC | not soluble
15 | MGSDKIHHHHHHMKIKKGDTEAEILTKGAYLYSFKIGNRDMILRGDLERPTRGGMAILIPFANRVKNAEYVFEGVKYTLPQNREGNAIHGLVMDKEFNVIGKSEDSISLQYILEHEGYPSKLDCVITYKVFKYGLRIKIVVRNVGNKRAPLTVGAHPYFITADDWRIVVEKEESIKKCISFNKIPTGELVKTKLEHTDYDDCFLISGGIQLHSSYSKVRITRRNMPFVQIYTGVRGSIAIEPMSGAPDAYHNGLGLKILEPNESSYFAFAFRFH | not soluble
16 | MKRVLIPGVILCGADVAQAVDDKNMYMHFFEEMTVYAPVPVPVNGNTHYTSESIERLPTGNGNISDLLRTNPAVRMDSTQSTSLNQGDIRPEKISIHGASPYQNAYLIDGISATNNLNPANESDASSATNISGMSQGYYLDVSLLDNVTLYDSFVPVEFGRFNGGVIDAKIKRFNADDSKVKLGYRTTRSDWLTSHIDENNKSAFNQGSSGSTYYSPDFKKNFYTLSFNQELADNFGVTAGLSRRQSDITRADYVSNDGIVAGRAQYKNVIDTALSKFTWFASDRFTHDLTLKYTGSSRDYNTSTFPQSDREMGNKSYGLAWDMDTQLAWAKLRTTVGWDHISDYTRHDHDIWYTELSCTYGDITGRCTRGGLGHISQAVDNYTFKTRLDWQKFAVGNVSHQPYFGAEYIYSDAWTERHNQSESYVINAAGKKTNHTIYHKGKGRLGIDNYTLYMADRISWRNVSLMPGVRYDYDNYLSNHNISPRFMTEWDIFANQTSMITAGYNRYYGGNILDMGLRDIRNSWTESVSGNKTLTRYQDLKTPYNDELAMGLQQKIGKNVIARANYVYREAHDQISKSSRTDSATKTTITEYNNDGKTKTHSFSLSFELAEPLHIRQVDINPQIVFSYIKSKGNLSLNNGYEESNTGDNQVVYNGNLVSYDSVPVADFNNPLKISLNMDFTHQPSGLVWANTLAWQEARKARIILGKTNAQYISEYSDYKQYVDEKLDSSLTWDTRLSWTPQFLQQQNLTISADILNVLDSKTAVDTTNTGVATYASGRTFWLDVSMKF | not soluble
17 | MKIGIIGATGKAGSRILKEALDRGHEVTAIVRNAAKITEENVKVLEKDVFSLTSNDLQAFDVVVNAFGAPAGHDHLHVDAGNVLIEAMKGAPNTKLVVVGGAGSLFVDEEKTTRVFETPGFPEEYLATAQNQGKNLEILQQTNDITWTFISPSALFALGKRTGSYKAGKDNLLVNAKGDSYVSYEDFAVAALDEIENPKHVNERFTVVSEAE | not soluble
18 | QRQSPIYHAQATVLIKSAEKSGATSGLQQFQELGLMIGNSEVENEILMLKSKRLTAIVVDKLDLDVSIYKQGFWRNESLYGNSPVSIQITDRDSTENYSFRIQINDAHSFQLTHFEQKERNGIGDIKIDGSFGRPIATPVGELKLNTTLFFADSWKGEVLYVTKENTRKVVERYNQDLQVSLADKKATIVNLSLKNEDLDRAKNFIDALIASYNDDVMNDKKSVAVSTAAFIDERLAMIGGELGTVDTEIETFKKRNNITDISTDVGTYLKSSADLQKDQLIVERNLSLAKYIQSFLRQTSTDNELMPANLGLTERGIDNSITLYNELKLKYDRLKQSSSENSPAVQEVGMQLVAMRKSINAAVDNYIKTLNLQLREVNKEMSRTKEQISAVPTQEKIMSTILRQQKIKEELYLYLLNKREENALRLAITESNAKTVDSADGSSEPISPRKP | not soluble
19 | MSDAPTVVAYLGPAGTFTEEALYKFADAGVFGDGEIEQLPAKSPQEAVDAVRHGTAQFAVVAIENFVDGPVTPTFDALDQGSNVQIIAEEELDIAFSIMVRPGTSLADVKTLATHPVGYQQVKNWMATTIPDAMYLSASSNGAGAQMVAEGTADAAAAPSRAAELFGLERLVDDVADVRGARTRFVAVQAQAA | not soluble
20 | MELMIGRVVKSHGIRGEVAIEVTTEEPEIRFAQGEVLNGRQGGKEHSLTIASVRPHQNRLLVKFKEIADRTAADSLRGTRFFAAPLDDDVDDGFYDHELEGLAVIHGEEKIGEVSGVIHGPAQSLLEVTLESGKEVLIPFVHDIVPEVDLDAGTCVITPPEGLLELLEHHHHHH | soluble
